In patent US20070054846A1, “Bcl-w structure and uses therefor” (priority 2002, published 2007):
Positions count from the first letter of the chain named. Names and notes keep the numbering of the source.

Key:
BimLΔC27-L94A [1] = target: T1, BimLΔC27-L94A (mouse, UniProt O54918-2 1-113); assay: SPR (BIAcore 2000), BimLΔC27-L94A immobilised, Bcl-w in solution; full-length Bcl-w
T1 construct: also called Bim containing the L94 mutation; L94A mutant
T1 sequence: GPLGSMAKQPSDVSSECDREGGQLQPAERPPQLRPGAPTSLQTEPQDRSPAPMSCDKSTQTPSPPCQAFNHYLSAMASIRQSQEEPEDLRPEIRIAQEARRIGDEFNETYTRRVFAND
Experimental: (§1) Similar results were obtained when a corresponding mutation (L138A) was introduced into another BH3-only protein, Bmf (not shown).
(§2) Analysis of protein interactions by surface plasmon resonance was carried out on a BIAcore 2000 biosensor (BIAcore). For the immobilisation to BIAcore CM 5 sensorchips (BIAcore), wild-type or mutant Bim proteins were buffer exchanged into 20 mM Na-acetate, pH 4.5. N-hydroxysuccinimide coupling and binding analysis was done as described previously (Lackmann et al., 1997). In order to minimise mass-transport mediated effects the kinetic experiments were routinely carried out at 20 μl/min. Bcl-w binding at concentrations between 2 and 0.03 μM in running buffer (10 mM HEPES, pH 7.4, 150 mM NaCl, 3.4 mM EDTA, 0.005% Tween 20) was performed on sensorchip surfaces derivatised on parallel channels with a non-relevant protein, BimLΔC27 and BimLΔC27-L94A. The binding kinetics were derived from the sensorgrams following subtraction of baseline responses (measured on the control channel) by ‘global analysis’ using the BIA Evaluation software (vers. 3.02, BIAcore).

BimLΔC27-L94A [2] = target: T1, BimLΔC27-L94A; assay: SPR (BIAcore 2000)
Experimental: as §1, §2

BimLΔC27 [3] = target: T2, BimLΔC27 (mouse, UniProt O54918-2 1-113); assay: SPR (BIAcore 2000), BimLΔC27 immobilised, Bcl-w in solution, global 1:1 Langmuir fit
T2 construct: Truncation by 27 C-terminal residues is stated, the end residue is not; Numbering (L94) is that of the BimL isoform, not of the canonical BimEL entry; Immobilised on the CM5 chip in SPR; soluble protein in GST pull-downs; also called C-terminally truncated BimL; wt BimLΔC27
T2 sequence: T1 sequence with A99L
Experimental: as §1, §2

BimLΔC27-L94A [4] = target: T1, BimLΔC27-L94A; assay: SPR (BIAcore 2000), global fit to a 1:1 Langmuir model. Sheet heads Bcl-w 'Immobilized' and Bim 'Analyte'; text says Bim immobilised, Bcl-w in solution
Experimental: (§3) FIG. 3A is a table showing the binding constants for various Bcl-w-BH3-only ligand complexes, which were determined using Biosensor experiments as described herein. FIG. 3B is a graphical representation showing the interaction kinetics of Bcl-w binding to BimLΔC27. Samples of serially diluted Bcl-w (2 μM-62.5 nM) were analysed on a BimLΔC27 sensor surface as described in Experimental Procedures. […] FIG. 3C is a graphical representation showing the interaction kinetics of Bcl-w or Bcl-wΔC29 binding to BimLΔC27 or BimLΔC27-L94A. […] Relative responses of samples between 1 μM and 62.5 nM are shown. FIG. 3D is a photographic representation of a GST pull-down assay to assess the binding capacity of Bcl-w proteins. Approximately equivalent amounts of the indicated GST-Bcl-w proteins were mixed with either soluble wt BimLΔC27 or soluble BimLΔC27-L94A. The intensity of the Bim band indicated the amount of protein that bound to Bcl-w. Molecular weight standards in kDa are indicated.
as §2, with “3.02, BIAcore). The surface of the chip was regenerated with 50 mM 1,2-diethylamine containing 0.1% Triton X100, followed by two washes with running buffer.” for “3.02, BIAcore).”

BimLΔC27 [5] = target: T2, BimLΔC27; assay: as above
Experimental: as §3
as §2, with “3.02, BIAcore). The surface of the chip was regenerated with 50 mM 1,2-diethylamine containing 0.1% Triton X100, followed by two washes with running buffer.” for “3.02, BIAcore).”

BimLΔC27 [6] = target: T2, BimLΔC27; assay: SPR (BIAcore 2000), BimLΔC27 immobilised
Experimental: as §1, §2

BimLΔC27-L94A [7] = target: T1, BimLΔC27-L94A; assay: SPR (BIAcore 2000), BimLΔC27-L94A immobilised; Bcl-w truncated by 29 residues (Bcl-wΔC29)
Experimental: as §1, §2

[8] = target: T3, FLAG Bcl-xL (full-length) (UniProt Q07817 1-233); assay: co-immunoprecipitation from 35S-labelled 293T lysates with anti-FLAG (α-F), anti-EE (α-E) and control anti-HA (α-H) [upper right gel]
T3 construct: also called FLAG-tagged full-length Bcl-xL; not shown: FLAG tag
T3 sequence (Q07817 whole entry): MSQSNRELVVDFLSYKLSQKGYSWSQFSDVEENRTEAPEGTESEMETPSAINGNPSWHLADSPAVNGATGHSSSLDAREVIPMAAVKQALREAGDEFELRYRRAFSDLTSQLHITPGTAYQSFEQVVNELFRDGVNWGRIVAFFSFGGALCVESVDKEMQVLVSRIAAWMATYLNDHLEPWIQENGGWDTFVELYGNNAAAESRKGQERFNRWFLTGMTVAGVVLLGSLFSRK
Description: FIG. 4 comprises photographic representations showing that the in vivo and in vitro binding properties of Bcl-xL resemble that of Bcl-w. FIG. 4A is a photographic representation showing that the C-terminus of Bcl-w restricts access to the binding groove in vivo. Equivalent ³⁵S-labeled 293T lysates obtained from cells co-expressing FLAG Bcl-w or Bcl-wΔC29, and EE-BimEL or BimEL-L150A, were immunoprecipitated using the anti-FLAG M2 (α-F), anti-EE (α-E) or control anti-HA (α-H) monoclonal antibodies. The immunoprecipitations were fractionated on SDS-PAGE gels. FIG. 4B is a photographic representation showing that the C-terminus of Bcl-xL restricts access to the binding groove in vivo. Co-precipitation experiments similar to those described in FIG. 4A using lysates from cells co-expressing FLAG Bcl-xL or Bcl-xLΔC24, and EE-BimL or BimL-L94A. […]
Cell culture, stable transfections into FDC-P1, transient transfections into 293T human embryonic kidney cells, metabolic labelling with ³⁵S-methionine/cysteine (NEN) and co-immunoprecipitation have been previously described (O'Connor et al., 1998, Moriishi et al., 1999; Huang et al., 1998; Wilson-Annan et al., 2003). […] The immunoprecipitates were resolved by SDS-PAGE (Novex), transferred onto nitrocellulose membranes (APB) and the proteins detected by fluorography (Amplify; APB).

Bim-BH3 peptide = target: T4, Bim-BH3 peptide (mouse); assay: NMR, 15N-NOESY-HSQC chemical shift changes
T4 peptide: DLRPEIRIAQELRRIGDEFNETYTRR

Bim = target: T5, Bim (UniProt O54918-2 1-140, limits assumed); assay: not described
T5 construct: also called BH3-only protein Bim
T5 sequence (looked up): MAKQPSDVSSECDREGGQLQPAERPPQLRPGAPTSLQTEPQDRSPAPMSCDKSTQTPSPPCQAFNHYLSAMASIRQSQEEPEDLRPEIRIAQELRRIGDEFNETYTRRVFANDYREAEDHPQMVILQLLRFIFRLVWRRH

B1: Bcl-w (full-length, purified recombinant protein) (other)
chain: GPLGSMATPASAPDTRALVADFVGYKLRQKGYVCGAGPGEGPAADPLHQAMRAAGDEFETRFRRTFSDLAAQLHVTPGSAQQRFTQVSDELFQGGPNWGRLVAFFVFGAALCAESVNKEMEPLVGQVQEWMVAYLETRLADWIHSSGGWAEFTALYGDGALEEARRLREGNWASVRTVLTGAVALGALVTVGAFFASK
notes: Expressed as GST fusion in E. coli, released with PreScission protease; analyte in solution in the BIAcore experiments; also called full length Bcl-w; wild-type Bcl-w
Kd (BimLΔC27-L94A [1]): 1.6 µM
fold decrease in the association rate against BimLΔC27 (BimLΔC27-L94A [2]): 10 fold
fold increase in the dissociation rate against BimLΔC27 (BimLΔC27-L94A [2]): 5 fold
fold reduction of affinity against BimLΔC27 (BimLΔC27-L94A [2]): > 60 fold
Kd (BimLΔC27 [3]): 0.024 µM
koff (BimLΔC27-L94A [4]): 0.02 s⁻¹
kon (BimLΔC27-L94A [4]): 13000 M⁻¹ s⁻¹
koff (BimLΔC27 [5]): 0.0043 s⁻¹
kon (BimLΔC27 [5]): 180000 M⁻¹ s⁻¹

B2: Bcl-wΔC29 (purified recombinant protein) (other)
chain: GPLGSMATPASAPDTRALVADFVGYKLRQKGYVCGAGPGEGPAADPLHQAMRAAGDEFETRFRRTFSDLAAQLHVTPGSAQQRFTQVSDELFQGGPNWGRLVAFFVFGAALCAESVNKEMEPLVGQVQEWMVAYLETRLADWIHSSGGWAEFTALYGDGALEEARRLRE
notes: Residue limits 1-164 follow from 193 aa minus 29; also called Bcl-w truncated by 29 residues at the C-terminus
Kd (BimLΔC27 [6]): 0.011 µM
fold increase in the association rate against full-length Bcl-w (BimLΔC27 [6]): 3 fold
Kd (BimLΔC27-L94A [7]): 0.013 µM
koff (BimLΔC27-L94A [4]): 0.0028 s⁻¹
kon (BimLΔC27-L94A [4]): 210000 M⁻¹ s⁻¹
koff (BimLΔC27 [5]): 0.0061 s⁻¹
kon (BimLΔC27 [5]): 570000 M⁻¹ s⁻¹

B3: EE-BimL-L94A (ligand, UniProt O54918-2 1-140, looked up)
chain: T5 sequence (looked up) with L94A
notes: also called L94A mutant; not shown: EE (Glu-Glu) tag
binding result [8]: no binding

B4: Bcl-wΔC10 (A128E), purified, NMR sample (other)
chain: GPLGSMATPASAPDTRALVADFVGYKLRQKGYVCGAGPGEGPAADPLHQAMRAAGDEFETRFRRTFSDLAAQLHVTPGSAQQRFTQVSDELFQGGPNWGRLVAFFVFGAALCAESVNKEMEPLVGQVQEWMVEYLETRLADWIHSSGGWAEFTALYGDGALEEARRLREGNWASVRTVLTGAVALGAL
notes: Isotope-labelled (15N) protein for the NOESY-HSQC with the Bim-BH3 peptide
binding result (Bim-BH3 peptide): binds

B5: Bcl-w with Arg95 mutated to Ala (other)
chain: MATPASAPDTRALVADFVGYKLRQKGYVCGAGPGEGPAADPLHQAMRAAGDEFETRFRRTFSDLAAQLHVTPGSAQQRFTQVSDELFQGGPNWGALVAFFVFGAALCAESVNKEMEPLVGQVQEWMVAYLETRLADWIHSSGGWAEFTALYGDGALEEARRLREGNWASVRTVLTGAVALGALVTVGAFFASK
notes: Construct and assay not described; also called Bcl-w R95A
binding result (Bim): no binding
